From patent US20110142851A1 (EMERGENT PRODUCT DEVELOPMENT SEATTLE, published 2011)
Values belong to the binder of their own block, whether it stands above or below them.

Legend:
[1] = target: T1, recombinant human IL6 (human, UniProt P05231 30-212); test: SPR Biacore, mAb captured by anti-mouse Fc, single cycle kinetics
T1 construct: also called rhIL6; IL6 monomer

[2] = target: T2, hu HIL6 AFH monomer (human); test: SPR Biacore T100, binder captured by anti-human Fc
T2 chain: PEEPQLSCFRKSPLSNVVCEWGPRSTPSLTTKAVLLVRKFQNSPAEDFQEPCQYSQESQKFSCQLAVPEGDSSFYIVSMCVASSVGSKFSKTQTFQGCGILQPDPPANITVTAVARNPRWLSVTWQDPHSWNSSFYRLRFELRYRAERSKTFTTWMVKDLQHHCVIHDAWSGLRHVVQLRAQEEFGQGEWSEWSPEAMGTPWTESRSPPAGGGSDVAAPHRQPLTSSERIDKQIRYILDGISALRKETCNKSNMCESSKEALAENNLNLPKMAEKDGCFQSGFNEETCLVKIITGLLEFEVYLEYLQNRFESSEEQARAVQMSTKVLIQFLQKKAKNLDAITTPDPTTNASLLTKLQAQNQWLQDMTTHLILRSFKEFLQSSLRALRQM

[3] = target: T3, sIL6R Fc dimer (UniProt P08887 20-358, limits assumed); test: SPR Biacore T100, binder captured by anti-human Fc
T3 construct: not shown: Fc
T3 sequence (looked up): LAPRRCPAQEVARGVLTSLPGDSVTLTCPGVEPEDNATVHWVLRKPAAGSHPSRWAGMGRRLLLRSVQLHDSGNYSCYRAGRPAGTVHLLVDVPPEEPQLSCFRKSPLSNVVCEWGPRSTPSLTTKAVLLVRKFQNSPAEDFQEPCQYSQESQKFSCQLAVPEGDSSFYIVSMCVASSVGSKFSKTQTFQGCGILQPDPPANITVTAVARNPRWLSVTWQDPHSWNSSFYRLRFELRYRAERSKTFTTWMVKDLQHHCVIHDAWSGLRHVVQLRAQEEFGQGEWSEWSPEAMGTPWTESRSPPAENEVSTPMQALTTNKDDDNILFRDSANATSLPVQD

[4] = target: T4, hu HIL6 Fc dimer (dimeric human HIL6/mouse IgG Fc fusion protein) (human); test: SPR Biacore T100, binder captured by anti-human Fc
T4 construct: also called human hyper-IL6 (IL6R-IL6-mIgG); dimeric HIL6
T4 chain: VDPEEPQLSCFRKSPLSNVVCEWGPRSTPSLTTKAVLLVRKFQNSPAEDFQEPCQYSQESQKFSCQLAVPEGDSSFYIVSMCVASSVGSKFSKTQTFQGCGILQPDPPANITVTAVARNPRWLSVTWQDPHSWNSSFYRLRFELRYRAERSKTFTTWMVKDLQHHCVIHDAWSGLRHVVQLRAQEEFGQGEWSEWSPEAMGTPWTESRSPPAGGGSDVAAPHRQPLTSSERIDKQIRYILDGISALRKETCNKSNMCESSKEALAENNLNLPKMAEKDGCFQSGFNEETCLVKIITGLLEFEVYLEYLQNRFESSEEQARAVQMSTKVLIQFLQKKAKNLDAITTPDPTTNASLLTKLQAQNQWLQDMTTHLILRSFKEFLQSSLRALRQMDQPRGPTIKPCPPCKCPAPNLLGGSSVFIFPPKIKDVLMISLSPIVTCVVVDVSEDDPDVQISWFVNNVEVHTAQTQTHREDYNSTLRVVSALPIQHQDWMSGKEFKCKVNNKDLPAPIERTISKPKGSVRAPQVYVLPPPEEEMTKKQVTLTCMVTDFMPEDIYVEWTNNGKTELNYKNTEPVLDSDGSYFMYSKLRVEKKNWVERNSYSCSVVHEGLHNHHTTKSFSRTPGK

[5] = target: T1, recombinant human IL6; test: SPR Biacore T100, binder captured by anti-human Fc
[6] = target: T5, Hyper-IL6 (human); test: SPR Biacore, mAb captured by anti-mouse Fc, HIL6 injected
T5 chain: T2 chain

[7] = target: T1, recombinant human IL6; test: SPR Biacore, binder captured by anti-human Fc, single cycle kinetics
Method: (§1) Anti-IL6 binding domains were captured using immobilized anti-mouse Fc polyclonal antibody in the case of anti-IL6 antibodies, or an anti-human Fc monoclonal in the case of SMIPs, Xceptors, and humanized SMIPs. IL6 binding to the anti-IL6 binding domains was studied using single cycle kinetics. Five sequential injections of IL6 were made per cycle starting with the lowest concentration of IL6 (6.4 pM) and progressing to the highest concentration (4,000 pM). The flow rate was 45 μL per minute and each injection of IL6 lasted 7 minutes. At the end of the highest IL6 concentration injection, IL6 was allowed to dissociate for 30 minutes. The data were fit to a one-to-one binding single cycle kinetics model. HIL6 binding was studied by injecting a single concentration of HIL6 (from 6.4-4,000 pM) per cycle for 7 minutes, and then allowing the bound HIL6 to dissociate for either 30 seconds (0 to 800 pM) or one hour (0 and 4,000 pM). […] All analysis was performed using BIAevaluation software.

[8] = target: T5, Hyper-IL6; test: SPR Biacore, binder captured by anti-human Fc, HIL6 injected
Method: as §1

- Kd [1]: 0.022 nM
- koff [1]: 5e-05 s⁻¹
- kon [1]: 2.3e+06 M⁻¹ s⁻¹
B1: CLB-8 mAb (antibody, V domains shown)
VH: EVQLVESGGKLLKPGGSLKLSCAASGFTFSSFAMSWFRQSPEKRLEWVAEISSGGSYTYYPDTVTGRFTISRDNAKNTLYLEMSSLRSEDTAMYYCARGLWGYYALDYWGQGTSVTVSS
VL: QIVLIQSPAIMSASPGEKVTMTCSASSSVSYMYWYQQKPGSSPRLLIYDTSNLASGVPVRFSGSGSGTSYSLTISRMEAEDAATYYCQQWSGYPYTFGGGTKLEIKR

- Kd [2]: 3000 nM
- binding result [3]: no binding (tested: 100 nM)
- Kd [4]: 49 nM
- binding result [5]: no binding (tested: 100 nM)
B2: TRU(XT6)-1029 (Fc fusion)
chain: LPAQVAFTPYAPEPGSTCRLREYYDQTAQMCCSKCSPGQHAKVFCTKTSDTVCDSCEDSTYTQLWNWVPECLSCGSRCSSDQVETQACTREQNRICTCRPGWYCALSKQEGCRLCAPLRKCRPGFGVARPGTETSDVVCKPCAPGTFSNTTSSTDICRPHQICNVVAIPGNASMDAVCTSTSPTRSMAPGAVHLPQPVSTRSQHTQPTPEPSTAPSTSFLLPMGPSPPAEGSTGDTGEPKSSDKTHTCPPCPAPEAAGAPSVFLFPPKPKDTLMISRTPEVTCVVVDVSHEDPEVKFNWYVDGVEVHNAKTKPREEQYNSTYRVVSVLTVLHQDWLNGKAYACAVSNKALPAPIEKTISKAKGQPREPQVYTLPPSRDELTKNQVSLTCLVKGFYPSDIAVEWESNGQPENNYKTTPPVLDSDGSFFLYSKLTVDKSRWQQGNVFSCSVMHEALHNHYTQKSLSLSPGQRHNNSSLNTRTQKARHSPNSEVQLLESGGGLVQPGGSLRLSCAASGFTFSSYWMHWVRQAPGKGLEWVSSIYPSGGSTEYADSVKGRFTISRDNSKNTLYLQMNSLRAEDTAVYYCAKGIWFDPWGQGTLVTVSSGGGGSGGGGSGGGGSQDIQMTQSPATLSASVGDRVTITCRSSQRISGYLNWYQQQPGKAPKLLIYAASTLQSGVPSRISGSGSGTDFSLIISSLQPEDVATYYCQQSYSPPFTFGQGTKVEIK
notes: Xceptor, TNFRSF1B ectodomain N-terminal, anti-IL6xR domain C-terminal

- Kd [6]: 0.012 nM
- koff [6]: 2.4e-05 s⁻¹
- kon [6]: 2e+06 M⁻¹ s⁻¹
- Kd [1]: 0.007 nM
- koff [1]: 2.2e-05 s⁻¹
- kon [1]: 3.2e+06 M⁻¹ s⁻¹
B3: AH-65 mAb (antibody, V domains shown)
VH: EVQLVESGGGLVQPKGTLRLSCAASGFSFNTYAMNWVRQAPGKSLEWVARTVTKSNKYATYYADSVSDRVTISREDSQSMLYLQMTNLKTEDTAMYYCVREDYYGTLDYWGQGTSVTVSS
VL: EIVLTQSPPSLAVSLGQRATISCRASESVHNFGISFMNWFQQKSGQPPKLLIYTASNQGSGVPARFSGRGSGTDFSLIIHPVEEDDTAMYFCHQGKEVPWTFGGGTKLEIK

- Kd [2]: 6.3 nM
- Kd [4]: 25 nM
- binding result [5]: no binding (tested: 100 nM)
B4: TRU(XT6)-1025 (Fc fusion)
chain: LPAQVAFTPYAPEPGSTCRLREYYDQTAQMCCSKCSPGQHAKVFCTKTSDTVCDSCEDSTYTQLWNWVPECLSCGSRCSSDQVETQACTREQNRICTCRPGWYCALSKQEGCRLCAPLRKCRPGFGVARPGTETSDVVCKPCAPGTFSNTTSSTDICRPHQICNVVAIPGNASMDAVCTSTSPTRSMAPGAVHLPQPVSTRSQHTQPTPEPSTAPSTSFLLPMGPSPPAEGSTGDTGEPKSSDKTHTCPPCPAPEAAGAPSVFLFPPKPKDTLMISRTPEVTCVVVDVSHEDPEVKFNWYVDGVEVHNAKTKPREEQYNSTYRVVSVLTVLHQDWLNGKAYACAVSNKALPAPIEKTISKAKGQPREPQVYTLPPSRDELTKNQVSLTCLVKGFYPSDIAVEWESNGQPENNYKTTPPVLDSDGSFFLYSKLTVDKSRWQQGNVFSCSVMHEALHNHYTQKSLSLSPGQRHNNSSLNTRTQKARHSPNSEVQLLESGGGLVQPGGSLRLSCAASGFTFSHYGMHWVRQAPGKGLEWVSSIYPGMTQYADSVKGRFTISRDNSKNTLYLQMNSLRAEDTAVYYCARDRGSGIDAFDIWGQGTMVTVSSGGGGSGGGGSGGGGSQSELTQPPSVSVSPGQTATVSCSGEKLGDRYAWWYQQKAGQSPVLVIYQDTKRPSGVPDRFSGSNSGTSASLVISGPQSEDEADYYCAAWDDSLKGVVFGGGSKLTVL
notes: as for B2

- Kd [2]: 190 nM
- binding result [3]: no binding (tested: 100 nM)
- Kd [4]: 270 nM
- binding result [5]: no binding (tested: 100 nM)
B5: TRU(XT6)-1013 (Fc fusion)
chain: LPAQVAFTPYAPEPGSTCRLREYYDQTAQMCCSKCSPGQHAKVFCTKTSDTVCDSCEDSTYTQLWNWVPECLSCGSRCSSDQVETQACTREQNRICTCRPGWYCALSKQEGCRLCAPLRKCRPGFGVARPGTETSDVVCKPCAPGTFSNTTSSTDICRPHQICNVVAIPGNASMDAVCTSTSPTRSMAPGAVHLPQPVSTRSQHTQPTPEPSTAPSTSFLLPMGPSPPAEGSTGDTGEPKSSDKTHTCPPCPAPEAAGAPSVFLFPPKPKDTLMISRTPEVTCVVVDVSHEDPEVKFNWYVDGVEVHNAKTKPREEQYNSTYRVVSVLTVLHQDWLNGKAYACAVSNKALPAPIEKTISKAKGQPREPQVYTLPPSRDELTKNQVSLTCLVKGFYPSDIAVEWESNGQPENNYKTTPPVLDSDGSFFLYSKLTVDKSRWQQGNVFSCSVMHEALHNHYTQKSLSLSPGQRHNNSSLNTRTQKARHSPNSEVQLLESGGGLVQPGGSLRLSCAASGFTFSGYVMGWVRQAPGKGLEWVSSISPSGGYTLYADSVKGRFTISRDNSKNTLYLQMNSLRAEDTAVYYCARAFSTRWYWGAFDIWGQGTMVTVSSGGGGSGGGGSGGGGSQDIQMTQSPATLSLSPGERATLSCRASQSVRSYLAWYQQKPGQAPRLLIYDASNRATGIPARFSGSGSGTDFTLTITSLQPEDIATYYCQQYDNLPLTFGGGTKVEIK
notes: as for B2

- Kd [6]: 0.444 nM
- koff [6]: 0.00096 s⁻¹
- kon [6]: 2.2e+06 M⁻¹ s⁻¹
- Kd [1]: 0.41 nM
- koff [1]: 0.002 s⁻¹
- kon [1]: 4.8e+06 M⁻¹ s⁻¹
B6: BSF2-77 mAb (antibody, V domains shown)
VH: QVQLQQPGAELVKPGASVKLSCKASGYIFTSYWMHWVKQRPGQGLEWIGEINPSNGRTNYNERFKSKATLTVDKSSSTAYIQLSSLTSDDSAVYYCSRSDTKATCDYWGQGTTLTVSS
VL: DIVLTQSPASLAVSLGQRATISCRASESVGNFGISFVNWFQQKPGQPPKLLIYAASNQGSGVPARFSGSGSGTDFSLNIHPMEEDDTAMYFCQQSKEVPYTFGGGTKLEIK

- Kd [7]: 0.051 nM
- koff [7]: 0.00019 s⁻¹
- kon [7]: 3.9e+06 M⁻¹ s⁻¹
- Kd [8]: 0.05 nM
- koff [8]: 0.00018 s⁻¹
- kon [8]: 3.6e+06 M⁻¹ s⁻¹
B7: TRU(S6)-1063 (Fc fusion)
VH: EVQLVESGGGLVQPGGSLRLSCAASGFTFNTYAMNWVRQAPGKGLEWVGRTVTKSNKYATYYADSVSDRFTISRDDSKNSLYLQMNSLKTEDTAVYYCAREDYYGTLDYWGQGTLVTVSS
VL: EIVLTQSPATLSLSPGERATLSCRASESVHNFGISFMNWYQQKPGQAPRLLIYTASNQGSGIPARFSGSGSGTDFTLTISSLEPEDFAVYYCHQGKEVPWTFGQGTKVEIK
notes: Humanized SMIP fusion protein (single chain)

- Kd [7]: 0.048 nM
- koff [7]: 0.0002 s⁻¹
- kon [7]: 4.2e+06 M⁻¹ s⁻¹
- Kd [8]: 0.046 nM
- koff [8]: 0.00019 s⁻¹
- kon [8]: 4.1e+06 M⁻¹ s⁻¹
B8: TRU(S6)-1064 (Fc fusion)
VH: B7 VH
VL: DIVLTQSPASLAVSPGQRATITCRASESVHNFGISFMNWYQQKPGQPPKLLIYTASNQGSGVPARFSGSGSGTDFTLTINPVEANDTANYYCHQGKEVPWTFGQGTKVEIK
notes: as for B7
